Data on 2 molecules can be found in publication PMC12522135 (2025).

The target of one assay is mouse serum albumin (mouse, UniProt P07724 25-608). Put plainly: ELISA. For orientation: An ELISA detects its analyte on a solid surface through an enzyme-linked reagent.
The next assay addresses human serum albumin (human, UniProt P02768 25-609). Put plainly: ELISA.

mouse serum albumin, sequence (P07724 25-608): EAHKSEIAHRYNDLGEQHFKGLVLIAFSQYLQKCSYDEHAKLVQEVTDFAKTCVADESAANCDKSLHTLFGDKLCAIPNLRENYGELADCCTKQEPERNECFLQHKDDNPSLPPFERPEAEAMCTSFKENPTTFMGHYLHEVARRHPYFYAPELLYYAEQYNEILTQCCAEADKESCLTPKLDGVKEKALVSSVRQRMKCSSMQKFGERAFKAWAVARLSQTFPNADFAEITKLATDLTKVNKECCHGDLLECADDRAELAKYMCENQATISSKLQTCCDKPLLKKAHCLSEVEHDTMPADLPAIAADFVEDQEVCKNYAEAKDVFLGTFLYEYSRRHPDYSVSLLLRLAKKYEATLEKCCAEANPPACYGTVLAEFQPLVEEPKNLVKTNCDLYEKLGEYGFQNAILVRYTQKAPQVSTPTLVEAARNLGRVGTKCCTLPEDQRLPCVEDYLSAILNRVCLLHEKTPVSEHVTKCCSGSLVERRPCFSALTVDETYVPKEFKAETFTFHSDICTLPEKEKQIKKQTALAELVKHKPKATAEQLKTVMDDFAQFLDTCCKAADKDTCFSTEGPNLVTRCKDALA

B1: HEX-D3-ASA (designed binder)
chain: DLGKKLLEAARAGQDDEVRELLKAGADVNAKDYFSHTPLHLAARNGHLKIVEVLLKAGADVNAKDFAGKTPLHLAANEGHLEIVEVLLKAGADVNAQDIFGKTPADIAADAGHEDIAEVLQKAAGGGSGGGSGGGSGGGSGELKAIAQELKAIAKELKAIAWELKAIAQGAGGGGSGGGSGGGSGGGSDLGKKLLQAARAGQLDEVRELLKAGADVNAKDQEGITPLHVAAHQGHLEIVEVLLKAGADVNAKDVWGRTPLHLAAWRGHLEIVEVLLKAGADVNAKDHAGATPLHAAALSGHLEIVEVLLKAGADVNAQDKSGKTPADLAARAGHQDIAEVLQKAA
By Kd is commonly meant the concentration at which binding is half-saturated. A lower Kd goes with higher affinity. For the molecule B1, the values for the Kd in the assay with mouse serum albumin and with human serum albumin were 24.4 nM and 2.82 nM, respectively.

B2: Bilayer HEX-D3-ASA (designed binder)
chain: DLGKKLLQAARAGQLDEVRELLKAGADVNAKDQEGITPLHVAAHQGHLEIVEVLLKAGADVNAKDVWGRTPLHLAAWRGHLEIVEVLLKAGADVNAKDHAGATPLHAAALSGHLEIVEVLLKAGADVNAQDKSGKTPADLAARAGHQDIAEVLQKAAGGGSGGGSGGGSGGGSDLGKKLLEAARAGQDDEVRELLKAGADVNAKDYFSHTPLHLAARNGHLKIVEVLLKAGADVNAKDFAGKTPLHLAANEGHLEIVEVLLKAGADVNAQDIFGKTPADIAADAGHEDIAEVLQKAAGGGSGGGSGGGSGGGSGELKAIAQELKAIAKELKAIAWELKAIAQGAGGGGSGGGSGGGSGGGSDLGKKLLQAARAGQLDEVRELLKAGADVNAKDQEGITPLHVAAHQGHLEIVEVLLKAGADVNAKDVWGRTPLHLAAWRGHLEIVEVLLKAGADVNAKDHAGATPLHAAALSGHLEIVEVLLKAGADVNAQDKSGKTPADLAARAGHQDIAEVLQKAAGGGSGGGSGGGSGGGSDLGKKLLQAARAGQLDEVRELLKAGADVNAKDQEGITPLHVAAHQGHLEIVEVLLKAGADVNAKDVWGRTPLHLAAWRGHLEIVEVLLKAGADVNAKDHAGATPLHAAALSGHLEIVEVLLKAGADVNAQDKSGKTPADLAARAGHQDIAEVLQKAA
Regarding B2, the Kd was found to be 124 nM with mouse serum albumin and 7.9 nM in the assay with human serum albumin.
